Biological target: T1, purified human insulin-like growth factor I receptor (IGF-IR) (human, UniProt P08069 31-1367, limits assumed)
T1 construct: The natural receptor is made of alpha and beta subunits from one precursor; also called IGF-R; human IGF-1 receptor
Assay: SPR (BIAcore), IGF-IR immobilised on the chip, antibody as analyte
Experimental: The affinity constants of 1H7 (10⁹ M⁻¹) and αIGF-IR scFv-Fc (10⁸ M⁻¹) for IGF-IR were determined using a BIAcore instrument (BIAcore Inc., Piscataway, N.J.). Analytes, at various concentrations, were passed over IGF-IR-immobilized chips (0.3 μg/chip) at a flow rate of 5 μl/min.

T1 sequence (P08069 31-1367 limits assumed, form in doubt): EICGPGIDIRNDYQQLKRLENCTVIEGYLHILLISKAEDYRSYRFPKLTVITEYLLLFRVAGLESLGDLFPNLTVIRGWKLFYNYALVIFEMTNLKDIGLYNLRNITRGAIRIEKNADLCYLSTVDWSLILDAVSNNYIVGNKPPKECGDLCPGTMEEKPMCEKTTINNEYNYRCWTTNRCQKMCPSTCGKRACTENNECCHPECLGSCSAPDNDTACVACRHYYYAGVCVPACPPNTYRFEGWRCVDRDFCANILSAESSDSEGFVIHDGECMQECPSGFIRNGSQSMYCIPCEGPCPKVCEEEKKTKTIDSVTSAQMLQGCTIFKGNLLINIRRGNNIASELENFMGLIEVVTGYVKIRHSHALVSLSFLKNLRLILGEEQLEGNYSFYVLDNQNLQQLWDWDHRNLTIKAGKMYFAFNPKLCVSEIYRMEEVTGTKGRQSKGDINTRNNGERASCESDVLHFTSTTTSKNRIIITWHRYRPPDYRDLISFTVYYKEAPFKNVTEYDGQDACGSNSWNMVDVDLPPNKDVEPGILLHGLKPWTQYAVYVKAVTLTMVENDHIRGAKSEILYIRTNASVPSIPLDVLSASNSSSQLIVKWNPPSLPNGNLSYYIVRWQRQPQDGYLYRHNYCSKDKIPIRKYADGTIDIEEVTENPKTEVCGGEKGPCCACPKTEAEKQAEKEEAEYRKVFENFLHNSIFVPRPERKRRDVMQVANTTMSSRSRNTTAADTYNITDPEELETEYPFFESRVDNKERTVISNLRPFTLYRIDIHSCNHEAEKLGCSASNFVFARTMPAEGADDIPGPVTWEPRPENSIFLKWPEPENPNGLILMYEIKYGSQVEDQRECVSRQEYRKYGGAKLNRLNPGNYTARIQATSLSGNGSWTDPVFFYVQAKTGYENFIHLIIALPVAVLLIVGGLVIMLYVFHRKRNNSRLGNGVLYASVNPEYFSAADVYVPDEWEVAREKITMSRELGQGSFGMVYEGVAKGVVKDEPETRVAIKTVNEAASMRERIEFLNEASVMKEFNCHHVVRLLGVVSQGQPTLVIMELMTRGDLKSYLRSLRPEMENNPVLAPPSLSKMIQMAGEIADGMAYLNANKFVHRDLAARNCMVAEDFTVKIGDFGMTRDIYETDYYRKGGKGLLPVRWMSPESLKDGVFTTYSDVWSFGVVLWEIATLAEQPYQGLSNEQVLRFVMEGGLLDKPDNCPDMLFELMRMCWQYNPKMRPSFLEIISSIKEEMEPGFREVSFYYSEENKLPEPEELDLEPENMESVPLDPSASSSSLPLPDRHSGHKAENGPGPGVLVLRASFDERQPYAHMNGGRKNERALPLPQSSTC

| Binder | Ka |
| --- | --- |
| mouse monoclonal antibody 1H7 (antibody, V domains shown, Whole murine monoclonal antibody; also called 1H7 mAb) VH: EVKVVESGGGLVKPGGSLKLSCAASGFTFSIYAMSWVRQTPEKKLEWVASISNGGTTYYPDSVKGRFTISRDNARNILYLQMNSLRSEDTAMYYCARTFYYSFPRAMDYWGQGTSVTVSS VL: DIVMTQSHKFMSTSVGDRVNITCKASQDVNTAVAWYQQKPGQSPKLLIYWASTRHTGVPDRFTGSGSGTDFTLTISSVQAEDLTLYYCHQHYTTPYTFGGGTNLEIK | 1e+09 M⁻¹ |
| αIGF-IR scFv-Fc (chimeric single-chain antibody against human insulin-like growth factor I receptor) (Fc fusion, Divalent antibody with an expected Mr of 120 kDa, expressed in NS0 cells and purified on protein A. The signal peptide from the mT84.66 light chain is left out; not shown: human IgG1 Fc domain (cDNA clone from Dr. J. Schlom), SalI fragment inserted into the XhoI site of pcDNA/αIGF-IR scFv) DIVMTQSHKFMSTSVGDRVNITCKASQDVNTAVAWYQQKPGQSPKLLIYWASTRHTGVPDRFTGSGSGTDFTLTISSVQAEDLTLYYCHQHYTTPYTFGGGTNLEIKGGGGSGGGSGGGGSGGGSEVKVVESGGGLVKPGGSLKLSCAASGFTFSIYAMSWVRQTPEKKLEWVASISNGGTTYYPDSVKGRFTISRDNARNILYLQMNSLRSEDTAMYYCARTFYYSFPRAMDYWGQGTSVTVSS | 1e+08 M⁻¹ |
